Drawing on patent US20050276784A1, this text covers proliferation of mast cells (^3H-thymidine incorporation) (% of +/+ values) and half maximal proliferation of +/+ mast cells (^3H-thymidine incorporation) (ng of protein in 0.2 ml) for one substance.

The target in assay [1] is c-kit receptor of the W^v allele, on W^v/W^v mast cells (mouse) (UniProt P05532).
In assay [2] the target is c-kit receptor (wild type), on mast cells and on NIH ψ2 cells expressing the c-kit cDNA (mouse) (UniProt P05532).

In assay [1], “KL (c-kit ligand), soluble form purified from conditioned medium of Balb/3T3 fibroblasts (from UniProt P20826)” returned a proliferation of mast cells (^3H-thymidine incorporation) (% of +/+ values) of 10. Also, in assay [2], the half maximal proliferation of +/+ mast cells (^3H-thymidine incorporation) (ng of protein in 0.2 ml) was 0.5.
